A short description of the data set: Solubility of the lyophilised adduct at 1 %. The note with it: lyophilised powder, 1 % solution. In kind it is physicochemical. How it is done: a) Iron - manitol complex: 31.5 g of FeCl3·6H2O are dissolved jointly with 7.9 g of manitol in 400 ml of water. A solution of 18 g of NaOH in 48 ml of water is added under vigorous stirring. It is heated to 95° C, letting it spontaneously cool down to ambient temperature. b) Treated ovalbumin: 37.50 g of commercial ovalbumin in powder form are dispersed under vigorous stirring in 180 ml of water. A solution of 30 g of NaOH in 550 ml of water is heated separately to 65° C. The protein dispersion is added to the alkaline solution and is digested at 65° C for 15 minutes, with the pH being subsequently adjusted to a value between 8.5 - 10 with 6M HCl. While keeping the solution at 50° C and pH 8.5 - 10, Esperase® (NOVO-NORDISK) is added in a quantity of 1 ‰ of the initial albumin (37.5 mg), proteolytically digesting it, under gentle stirring, for 2 hours at 50° C without any pH correction. Once this time has elapsed, the spontaneous pH is 8.5. The solution is heated to 80° C in order to deactivate the remaining enzymatic activity, the pH is adjusted to 10 with 10M NaOH and, when the temperature goes down to 65° C, 2 ml/l of 30 % w/v H2O2 are added. […]

Consider “Adduct between treated ovalbumin and iron (III) - manitol complex [Example 1]”, for which the 1 % solubility entry is on record as “limpid”.

These data come from EP1655308B1, “Adducts of soluble ovalbumin with trivalent iron polyalcohol complexes and method to produce them” (Tedec-Meiji Farma, S.A., priority 2004, dated 2006).
